Experimental data published in publication PMC9602339, “Diaminopimelic Acid Metabolism by Pseudomonadota in the Ocean” (Microbiology Spectrum, 2022).

How the values were obtained:
[1] = substrate: NC(CCCC(N)C(=O)O)C(=O)O; assay: initial rates, Lys production by amino acid analyzer; nonlinear Michaelis-Menten fit; assay type: biochemical, Halomonas sp. A40-4; conditions: 0 to 12 mM DAP, 200 mM Tris-HCl pH 8.0, PLP (100 mM [sic]), 25°C, DAP stereoisomer not given
From the text: initial rates, Lys production by amino acid analyzer; nonlinear Michaelis-Menten fit on LysA (DAP decarboxylase) from strain A40-4

[2] = substrate: NC(CCCC(N)C(=O)O)C(=O)O; assay: as above; assay type: biochemical, Thalassospira sp. A40-3; conditions: 0 to 12 mM DAP, 200 mM Tris-HCl pH 8.0, PLP (100 mM [sic]), 25°C, DAP stereoisomer not given
From the text: initial rates, Lys production by amino acid analyzer; nonlinear Michaelis-Menten fit on LysA (DAP decarboxylase) from strain A40-3

| Protein | Km [1] | Vmax [1] | kcat [1] | Km [2] | Vmax [2] | kcat [2] |
| --- | --- | --- | --- | --- | --- | --- |
| LysA (DAP decarboxylase) from strain A40-4 (Halomonas sp. A40-4) (protein, lysA complementation fragment 1,272 bp) MDHFNDRDGLLFAEDVPLDRIAETYGTPCYVYSKATLTRHFRAYTEALGGHPHLICYAVKANSNLAVLGLLAKLGAGFDIVSVGELERVLKAGGDPDKVVFSGVAKQPHEMARALEVGIKCFNVESRPELERLNAVAGELGKMAPVSLRVNPDVDAGTHPYISTGLKDNKFGIPVDDALTVYELAASLPNLQVKGLDCHIGSQLTETAPFLDALERLLVLMERLRERGIEIDHLDLGGGLGVPYRDETPPHPFDYASQLLSRLSRWEGGEQLTLLFEPGRSIAANAGIMLTRVEFLKPGETKNFAIVDAAMNDLIRPALYQAWQAIVPVDTRSARETSIYDVVGPVCETGDFLGQERELAIAAGDLLAVRSAGAYGFVMASNYNSRPRPAEVMVDGERCHLVRARETLESLWSGEALLPEGGC | 0.72 ± 0.14 mM | 58.3 µmol/min/mg | 41.6 ± 0.88 s⁻¹ |  |  |  |
| LysA (DAP decarboxylase) from strain A40-3 (Thalassospira sp. A40-3) (protein, full length 423 residues) MNHFEYINSELYAEGVSIREMADKVGTPFFCYSTATLERHYKVYADAFDGLDATVCFAVKANSNQAVLKTLANLGAGADVVSVGEMRRALRAGMPPAKIIFSGVGKADAEMREALDADIAQINVESIPELVELNRVAIDMGKKARIALRVNPHVDAKTHEKIATGKAENKFGIDWTRAIEVYREAAAMDGIEVTGIAMHIGSQLTDLAPFREAFTRLAGLVEQLRSEGIDIRNLDLGGGLGIAYQGETPPLPDAYGQMVRETVGHLGCHITLEPGRLIAGNAGIMVSRVMYIKDGEAKRFVILDAAMNDLIRPTLYGAYHEIIPVDEQTDGDKQVKVDVVGPVCETGDTFGKDRDLPDDLKAGDLVAVMSAGAYGAVMSSTYNTRALTPEVLVKGNNFAIVRPRQEIDDLINMDLVPSWLSNA |  |  |  | 1.89 ± 0.34 mM | 37.7 µmol/min/mg | 26.9 ± 2.42 s⁻¹ |
